Measurements published in the supplement of paper PMC10567573.

B1: IMPA1 (parent)
chain: FIGEESVAAGEKSILTDNPTWIID
B2: SMOC2 (parent)
chain: PALETQPQGDEEDIASRYPTLWTE

Variants of: B1
Test: protein stability index of a GFP-peptide fusion (GPS, HEK-293T) (PSI 1-6); higher = more stable
Conditions: c terminus: a fixed tail appended
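Also: lentivirally expressed fusions sorted by FACS into six bins by GFP to DsRed ratio, PSI derived from sequencing read proportions per bin multiplied by bin number.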

Protein stability index, by site and new letter:
I23: T 1.92 | S 2.27 | Y 3.45 | Q 3.39 | W 2.59 | R 3.9 | V 2.02
D24: W 2.06 | V 1.86 | T 1.7 | A 1.71 | N 1.66 | H 2.01 | I 1.16 | L 2.05 | E 2.03 | Q 2.15 | P 2.04 | G 2.44 | K 2.07 | S 1.76 | Y 2.33 | C 1.72 | M 2.05 | R 1.59 | F 2.2

Variants of: B2
Test: as above
Conditions: c terminus: a fixed tail appended

Protein stability index, by site and new letter:
T5: D 5.12 | K 3.88 | E 4.99 | S 4.3 | H 4.64 | Q 4.72 | R 4.93 | I 4.45 | L 4.45 | M 5.01 | Y 4.65 | F 4.58 | P 4.58 | V 3.77 | G 4.3 | W 4.51 | C 4.61 | A 4.8 | N 4.54
L3: S 5.03 | E 5.59 | F 4.85 | P 5.08 | H 4.36 | M 4.83 | R 4.44 | Q 4.97 | N 4.23 | T 4.9 | K 4.27 | C 5.01 | V 4.87 | Y 4.81 | W 4.04 | G 4.33 | I 5.31 | D 5.37
G9: P 4.88 | A 4.92 | D 4.63 | T 4.97 | K 4.55 | S 5.09 | L 4.84 | W 4.62 | I 4.08 | F 4.89 | V 4.87 | M 4.76 | C 5.16 | N 4.78 | E 5.22 | H 4.71 | R 4.34 | Y 4.74
P7: I 5.37 | S 4.68 | T 4.54 | M 4.62 | C 4.46 | G 4.5 | N 4.48 | R 3.81 | K 3.38 | V 4.06 | W 4.02 | D 4.67 | E 4.67 | F 4.08 | Y 4.28 | A 4.07 | H 4.29 | L 4.6 | Q 5.02
P1: W 3.84 | H 4.32 | N 4.08 | D 4.56 | L 4 | T 4.58 | C 3.24 | E 4.63 | Q 3.91 | K 4.04 | I 4.09 | M 4.25 | S 4.78 | Y 3.1 | G 4.33 | F 3.44 | V 4.24 | R 4.74 | A 4.26
D10: R 3.86 | I 3.68 | T 4.14 | N 4.49 | A 4.36 | F 3.39 | H 3.56 | K 3.53 | G 3.68 | L 4.33 | M 3.05 | W 3.98 | V 3.69 | P 4.6 | C 3.36 | S 4.44 | Y 3.51 | Q 4.41 | E 4.16
E11: G 4.04 | Y 4.02 | S 4.38 | R 3.98 | H 3.41 | P 4.82 | F 3.95 | N 4.26 | M 3.59 | I 3.36 | A 3.79 | V 4.24 | K 3.92 | D 4.21 | L 3.84 | C 4.43 | W 3.96 | T 4.18 | Q 4.22
E4: V 4.11 | H 3.77 | M 3.95 | C 3.96 | Y 2.74 | L 4.22 | R 3.77 | W 3.52 | I 3.21 | S 4.32 | G 4.07 | A 4.42 | Q 4.9 | K 4.31 | T 4.46 | N 4.31 | D 4.91 | F 3.64
Q8: E 5.1 | R 4.6 | W 4.16 | S 4.74 | N 5.23 | C 5.05 | P 4.33 | V 5.17 | F 4.48 | H 4.96 | L 4.05 | T 4.86 | Y 3.89 | I 5.02 | D 5.29 | A 4.88 | M 4.87 | G 3.6 | K 3.9
Q6: C 4.7 | N 4.3 | I 4.77 | P 4.55 | T 4.7 | M 4.13 | F 4.25 | Y 4.66 | D 4.92 | R 4.34 | W 4.15 | L 4 | E 4.39 | K 4.26 | G 5.04 | H 4.73 | A 4.44 | V 3.97
R17: F 3.82 | E 4.5 | H 4.38 | K 4.35 | N 4.23 | D 4.94 | I 4.73 | G 4.71 | M 4.94 | C 3.2 | L 4.72 | A 4.81
D13: C 3.9 | F 4.14 | L 3.84 | N 4.23 | I 3.65 | Q 4.21 | R 4.14 | M 4.09 | G 3.85 | Y 3.59 | T 4.23 | E 3.76 | W 4.68 | K 2.67 | H 3.71 | A 4.35 | V 3.93 | S 3.97 | P 3.63
E12: Q 4.42 | V 3.75 | R 3.93 | I 3.68 | W 3.39 | A 3.94 | L 3.68 | N 4.11 | G 2.63 | Y 3.75 | K 3.56 | P 4.33 | F 4.2 | H 3.74 | D 4.41 | S 4.46 | T 4.34 | C 4.12 | M 3.7
S16: M 5.09 | V 5.14 | H 3.96 | T 4.39 | Q 5.17 | E 4.94 | L 4.81 | I 4.52 | P 5.27 | W 3.99 | C 4.63 | F 4.61 | N 4.56 | D 4.76 | G 5.21 | K 4.18 | A 4.5 | R 4.3 | Y 4.31
A2: G 5.22 | Q 4.54 | E 4.48 | I 4.07 | V 4.67 | L 5.17 | W 3.88 | C 4.4 | F 4.53 | R 3.7 | S 4.88 | K 4.13 | D 5.13 | M 4.6 | H 4.74 | N 5.04 | Y 4.61 | T 4.11
I14: E 4.79 | D 5.77 | Q 4.4 | G 4.53 | T 5.06 | M 3.95 | A 4.79 | K 3.96 | H 4.65 | Y 4.39 | P 4.99 | V 4.19 | F 4.42 | S 4.64 | N 5.01 | W 3.97 | C 4.14
A15: M 4.67 | K 3.78 | I 4.57 | R 4.53 | S 3.88 | W 4.14 | C 4.1 | Y 4.53 | H 4.11 | E 4.29 | G 4.63 | N 4.36 | F 4.34 | Q 4.42 | L 4.76 | V 3.87 | T 4.36 | D 4.33
